The target in experiment [1] is HLA-A*02:01. The experiment can be described thus: IEDB peptide-MHC binding, purified MHC/competitive/radioactivity; filed as Kd, often an IC50 or EC50 that approximates it; ≥ and ≤ were set here for values at or beyond the usual limits of such assays.
The next experiment addresses HLA-A*02:02. The description is as above.
In the next experiment the target is HLA-A*02:03. The experiment is described as above.
In the next experiment the target is HLA-A*02:06. The description is as above.
The target of experiment [2] is HLA-A*03:01. The experiment is described as above.
For experiment [3], the target named is HLA-A*11:01. Described as above.
Experiment [4] addresses HLA-A*31:01. The description is as above.
For the next experiment, the target named is HLA-A*33:01. Described as above.
For another experiment, the target named is HLA-A*68:01. Described as above.
The target in a further experiment is HLA-A*68:02. The description is as above.
For experiment [5], the target named is HLA-B*07:02. The description is as above.
Experiment [6] deals with HLA-B*35:01. The experiment is described as above.
For experiment [7], the target named is HLA-B*51:01. Described as above.
A further experiment addresses HLA-B*53:01. The description is as above.
Another experiment has as its target HLA-B*54:01. Described as above.
Another experiment addresses HLA-C*12:03. The experiment is described as follows: IEDB peptide-MHC binding, purified MHC/direct/fluorescence; filed as Kd, often an IC50 or EC50 that approximates it; ≥ and ≤ were set here for values at or beyond the usual limits of such assays.
Experiment [8] concerns the target HLA-A*01:01. The experiment is described as follows: IEDB peptide-MHC binding, purified MHC/competitive/radioactivity; filed as Kd, often an IC50 or EC50 that approximates it; ≥ and ≤ were set here for values at or beyond the usual limits of such assays. The note with it: source organism: Hepatitis C virus (isolate H).
The target of another experiment is HLA-B*08:01. Described as above. As to conditions: source organism: Hepatitis C virus (isolate H).
In a further experiment the target is HLA-B*18:01. The description is as above. As to conditions: source organism: Hepatitis C virus (isolate H).
For a further experiment, the target named is HLA-B*40:01. Described as above. The note with it: source organism: Hepatitis C virus (isolate H).
The target in another experiment is HLA-B*40:02. Described as above. The note with it: source organism: Hepatitis C virus (isolate H).
Another experiment concerns the target HLA-B*44:02. The description is as above. As to conditions: source organism: Hepatitis C virus (isolate H).
For the next experiment, the target named is HLA-B*44:03. Described as above. As to conditions: source organism: Hepatitis C virus (isolate H).
The next experiment deals with HLA-A*24:03. The experiment can be described thus: IEDB peptide-MHC binding, purified MHC/competitive/fluorescence; filed as Kd, often an IC50 or EC50 that approximates it; ≥ and ≤ were set here for values at or beyond the usual limits of such assays. The note with it: source organism: Bacillus anthracis str. A0488.
Experiment [9] addresses HLA-A*03:01. The experiment can be described thus: IEDB peptide-MHC binding, purified MHC/direct/fluorescence; filed as Kd, often an IC50 or EC50 that approximates it; ≥ and ≤ were set here for values at or beyond the usual limits of such assays.
Experiment [10] concerns the target HLA-A*11:01. Described as above.
Experiment [11] deals with HLA-A*31:01. The experiment is described as follows: IEDB peptide-MHC binding, purified MHC/competitive/fluorescence; filed as Kd, often an IC50 or EC50 that approximates it; ≥ and ≤ were set here for values at or beyond the usual limits of such assays.
The target in experiment [12] is HLA-B*51:01. The description is as above. As to conditions: source organism: Rickettsia felis URRWXCal2.
For experiment [13], the target named is HLA-A*02:01. The experiment is described as follows: IEDB peptide-MHC binding, purified MHC/direct/fluorescence; filed as Kd, often an IC50 or EC50 that approximates it; ≥ and ≤ were set here for values at or beyond the usual limits of such assays. As to conditions: source organism: SARS-CoV1.
For experiment [14], the target named is HLA-B*07:02. The description is as above. The note with it: source organism: SARS-CoV1.
Experiment [15] has as its target HLA-A*03:01. The experiment can be described thus: IEDB peptide-MHC binding, purified MHC/competitive/fluorescence; filed as Kd, often an IC50 or EC50 that approximates it; ≥ and ≤ were set here for values at or beyond the usual limits of such assays. As to conditions: source organism: Bacillus cereus G9241.
Experiment [16] addresses HLA-A*01:01. The experiment is described as above. The note with it: source organism: Yersinia pestis Antiqua.
Another experiment addresses HLA-A*26:01. Described as above. The note with it: source organism: Yersinia pestis Antiqua.
The target of experiment [17] is HLA-B*35:01. The description is as above. As to conditions: source organism: Yersinia pestis Antiqua.
Setting [18] is: source organism: Vaccinia virus WR.
The mark [19] stands for this setting: source organism: Hepatitis C virus (isolate H).
Where [20] appears, read: source organism: Mammarenavirus machupoense.
The mark [21] stands for this setting: source organism: SARS coronavirus Tor2.
[22] abbreviates: source organism: Yersinia enterocolitica.
Setting [23] is: source organism: Yersinia pestis Antiqua.
The mark [24] stands for this setting: source organism: Escherichia coli O157:H7.
Where [25] appears, read: source organism: Triticum aestivum.

Our source for the Kd values is the Immune Epitope Database (IEDB).

pKd: −log10 of the molar value.

TFMIITSTK: the negative logarithm of the Kd (pKd) with HLA-A*02:01 [1] (setting [18]) is not above 4.11; with HLA-A*02:02 (setting [18]), not above 4.20; with HLA-A*02:03 (setting [18]), not above 4.51; with HLA-A*02:06 (setting [18]), not above 4.11; in the experiment with HLA-A*03:01 [2] (setting [18]) it was 6.39; with HLA-A*11:01 [3] (setting [18]), 6.72. Besides, the pKd is 6.44 with HLA-A*31:01 [4] (setting [18]); 6.21 with HLA-A*33:01 (setting [18]); 6.98 in the experiment with HLA-A*68:01 (setting [18]); not above 4.11 in the experiment with HLA-A*68:02 (setting [18]); not above 4.11 in the experiment with HLA-B*07:02 [5] (setting [18]); 4.71 in the experiment with HLA-B*35:01 [6] (setting [18]). In addition, the pKd with HLA-B*51:01 [7] (setting [18]) was not above 4.11; with HLA-B*53:01 (setting [18]), not above 4.11; in the experiment with HLA-B*54:01 (setting [18]) it was not above 4.37.

With IAMESIVIW, in the experiment with HLA-C*12:03 (source organism: Human immunodeficiency virus 1), the pKd is not below 9.00.

For the sequence HPALVFDITK, the negative-log Kd (pKd) with HLA-A*01:01 [8] is 5.19; with HLA-A*02:01 [1] (setting [19]), not above 4.16; with HLA-A*02:02 (setting [19]), not above 4.33; in the experiment with HLA-A*02:03 (setting [19]), 5.13; in the experiment with HLA-A*02:06 (setting [19]), not above 4.16; in the experiment with HLA-A*03:01 [2] (setting [19]), 5.38. In addition, the pKd in the experiment with HLA-A*11:01 [3] (setting [19]) was 6.06; in the experiment with HLA-A*31:01 [4] (setting [19]), not above 4.15; in the experiment with HLA-A*33:01 (setting [19]) it was not above 4.42; in the experiment with HLA-A*68:01 (setting [19]) it was 8.63; in the experiment with HLA-A*68:02 (setting [19]), not above 4.16; with HLA-B*07:02 [5] (setting [19]), 5.52. In addition, the pKd with HLA-B*08:01 is not above 4.28; with HLA-B*18:01, not above 4.55; in the experiment with HLA-B*35:01 [6] (setting [19]) it was 6.36; in the experiment with HLA-B*40:01, not above 4.16; with HLA-B*40:02, not above 4.15; in the experiment with HLA-B*44:02, not above 4.15. The pKd with HLA-B*44:03 is not above 4.20; with HLA-B*51:01 [7] (setting [19]), not above 4.16; with HLA-B*53:01 (setting [19]), 6.32; with HLA-B*54:01 (setting [19]) it was 6.89.

For TPNQPSAEF, the pKd was 7.12 with HLA-B*07:02 [5] (setting [20]); 7.39 in the experiment with HLA-B*35:01 [6] (setting [20]); 4.89 with HLA-B*51:01 [7] (setting [20]); 6.25 with HLA-B*53:01 (setting [20]); 4.73 with HLA-B*54:01 (setting [20]).

Regarding LPRVVGGKTV, the pKd with HLA-B*07:02 [5] (setting [18]) was 9.51; with HLA-B*35:01 [6] (setting [18]), not above 4.54; in the experiment with HLA-B*51:01 [7] (setting [18]) it was 7.49; with HLA-B*53:01 (setting [18]) it was 4.91; with HLA-B*54:01 (setting [18]) it was 7.41.

For QFMEGIYKL, the negative-log Kd (pKd) with HLA-A*24:03 was 8.39.

Turning to RPTPKKMNIV, the pKd with HLA-B*07:02 [5] (setting [18]) was 7.28; with HLA-B*35:01 [6] (setting [18]), not above 4.31; with HLA-B*51:01 [7] (setting [18]) it was not above 4.16; with HLA-B*53:01 (setting [18]), not above 4.16; with HLA-B*54:01 (setting [18]) it was 5.23.

As for RAFKYPFIK, the negative logarithm of the Kd (pKd) with HLA-A*03:01 [9] (source organism: Fowlpox virus) is 8.17; with HLA-A*11:01 [10] (source organism: Fowlpox virus), 8.77; in the experiment with HLA-A*31:01 [11] (source organism: Fowlpox virus), 7.22.

Regarding IAYESSNKI, the pKd with HLA-C*12:03 (source organism: Rickettsia felis URRWXCal2) was 8.15; in the experiment with HLA-B*51:01 [12] it was 6.71.

As to TPRDLGACI, the pKd was not above 4.44 with HLA-A*02:01 [13]; 5.01 with HLA-A*11:01 [10] (source organism: SARS-CoV1); 6.73 in the experiment with HLA-B*07:02 [14]; 4.89 with HLA-B*35:01 [6] (setting [21]); 5.41 with HLA-B*51:01 [7] (setting [21]); not above 4.38 in the experiment with HLA-B*53:01 (setting [21]). The pKd with HLA-B*54:01 (setting [21]) was 5.41.

In the case of TVWNRLIAR, the pKd with HLA-A*03:01 [9] (setting [22]) is 7.41; in the experiment with HLA-A*11:01 [10] (setting [22]), 7.49; in the experiment with HLA-A*31:01 [11] (setting [23]) it was not below 9.00.

As for KVFSFWLLCK, the pKd with HLA-A*02:01 [1] (setting [18]) is 5.92; with HLA-A*02:02 (setting [18]), 5.37; in the experiment with HLA-A*02:03 (setting [18]), 5.47; with HLA-A*02:06 (setting [18]) it was 5.06; with HLA-A*03:01 [2] (setting [18]), 8.20; with HLA-A*11:01 [3] (setting [18]), 8.49. The pKd with HLA-A*31:01 [4] (setting [18]) is 8.03; with HLA-A*33:01 (setting [18]), 6.06; with HLA-A*68:01 (setting [18]), 7.37; in the experiment with HLA-A*68:02 (setting [18]), not above 4.31; in the experiment with HLA-B*07:02 [5] (setting [18]), not above 4.35; with HLA-B*35:01 [6] (setting [18]), not above 4.32. The pKd is 4.77 in the experiment with HLA-B*51:01 [7] (setting [18]), 5.63 in the experiment with HLA-B*53:01 (setting [18]) and 5.59 in the experiment with HLA-B*54:01 (setting [18]).

On to KLAETRMGY, for which the pKd was 7.15 with HLA-A*03:01 [9] (setting [24]), 6.03 in the experiment with HLA-A*11:01 [10] (setting [24]) and 6.81 in the experiment with HLA-A*31:01 [11] (source organism: Escherichia coli).

Consider QPQYSQPQQPI, for which the pKd with HLA-B*07:02 [5] (setting [25]) is not above 4.19; with HLA-B*35:01 [6] (setting [25]), not above 4.20; in the experiment with HLA-B*51:01 [7] (setting [25]), 4.94; with HLA-B*53:01 (setting [25]), not above 4.20; in the experiment with HLA-B*54:01 (setting [25]) it was not above 4.20.

As for ILIFLRNFR, the pKd was not above 4.70 with HLA-A*03:01 [15] and 8.29 with HLA-A*31:01 [11] (source organism: Bacillus cereus G9241).

FASSRMSTY: the negative logarithm of the Kd (pKd) with HLA-C*12:03 (setting [23]) is not below 9.00; with HLA-A*01:01 [16], 6.01; in the experiment with HLA-A*26:01 it was 6.65; in the experiment with HLA-B*35:01 [17] it was 9.70.

Regarding GMLVGRLGK, the pKd is 7.53 with HLA-A*03:01 [9] (setting [24]), 6.72 with HLA-A*11:01 [10] (setting [24]) and 7.86 with HLA-A*31:01 [11] (source organism: Escherichia coli O157:H7 str. Sakai).
